The values below come from publication PMC13181761, “New Analogs of the Compstatin Family of Clinical Complement Inhibitors with Low Picomolar Target Affinity” (Journal of Medicinal Chemistry, 2026).

Test [1] has as its target human C3b (human) (UniProt P01024).
Test [2] has the same target. Description: SPR; Biacore T200; human C3b amine-coupled; single-cycle kinetics, 5 increasing concentrations (0.5-40 nM), final dissociation 100-240 min; 25 °C, HBST pH 7.4; global Langmuir 1:1 fit; mean of 3 experiments. (In general: SPR reads the build-up and loss of mass on a sensor chip optically.)
Test [3] has the same target. Description: SPR; Biacore T200; human C3b amine-coupled; multicycle kinetics, serial 2-fold dilutions of peptide, 120 s injection, 180 s dissociation, regeneration 1 M NaCl; 25 °C, HBST pH 7.4; Langmuir 1:1 fit, KD = kd/ka; mean of 3 experiments.
For test [4] the target is unchanged. This is another data set of the same source.
For test [5] the target is unchanged. Description: SPR; Biacore T200; human C3b amine-coupled; 25 °C, HBST pH 7.4; KD determined as steady state affinity.

Broadly, the Kd is the free concentration of one partner at which half of the binding sites on the other are occupied at equilibrium, for simple one-to-one binding. A low value points to a tighter complex. The term koff denotes the first-order rate constant of dissociation. Low readings indicate slow dissociation, high ones fast dissociation. As usually defined, the kon is the second-order rate constant of association. Read a low kon as slower complex formation. In the test with human C3b (human) [1], compstatin analog Cp40 (peptide) displayed an IC50 of inhibition of classical pathway complement activation (CP ELISA, 5% human serum) of 158 nM. For the same substance, in the test with human C3b (human) [2], the equilibrium dissociation constant (Kd) worked out at 0.7 nM, the dissociation rate constant (koff) came out at 0.001 s⁻¹ and the on-rate (kon) turned out to be 1.76e+06 M⁻¹ s⁻¹.

In the case of Cp01 Asp6Asn analog (peptide), in the test with human C3b (human) [3], the Kd came to 219 nM, the dissociation rate constant (koff) worked out at 0.11 s⁻¹ and the kon was 540000 M⁻¹ s⁻¹.

Consider compstatin analog Cp01 (peptide), for which, in the test with human C3b (human) [4], the IC50 of inhibition of alternative pathway complement activation (AP ELISA, diluted normal human serum; the target in serum is C3) stood at 1.4 µM and the IC50 of inhibition of classical pathway complement activation (CP ELISA, diluted normal human serum; the target in serum is C3) was 20 µM.

In the test with human C3b (human) [2], Cp40 aIle3 analog (peptide) registered a Kd of 15.6 nM, a koff of 0.007 s⁻¹ and a kon of 460000 M⁻¹ s⁻¹.

As to Cp01 Val3Leu analog (peptide), in the test with human C3b (human) [3], the Kd turned out to be 552 nM, the dissociation rate constant (koff) amounted to 0.11 s⁻¹ and the association rate constant (kon) stood at 200000 M⁻¹ s⁻¹.

In turn, Cp01 aIle3 analog (peptide) yielded a dissociation constant (Kd) in the test with human C3b (human) [5] of 545 nM.

In the test with human C3b (human) [4], Cp01-V3I (peptide) returned an IC50 of inhibition of alternative pathway complement activation (AP ELISA, diluted normal human serum; the target in serum is C3) of 0.2 µM and an IC50 of inhibition of classical pathway complement activation (CP ELISA, diluted normal human serum; the target in serum is C3) of 0.43 µM. In the test with human C3b (human) [3], this substance displayed a Kd of 19.8 nM, a koff of 0.017 s⁻¹ and a kon of 880000 M⁻¹ s⁻¹.

As to Cp01 Asp6Ser analog (peptide), in the test with human C3b (human) [3], the equilibrium dissociation constant (Kd) came out at 609 nM, the koff worked out at 0.18 s⁻¹ and the association rate constant (kon) stood at 310000 M⁻¹ s⁻¹.

In the test with human C3b (human) [3], Cp01 Arg11Lys analog (peptide) registered a Kd of 502 nM, a koff of 0.15 s⁻¹ and a kon of 300000 M⁻¹ s⁻¹.

In the test with human C3b (human) [3], Cp01 Arg11Ser analog (peptide) showed a Kd of 529 nM, a koff of 0.16 s⁻¹ and a kon of 330000 M⁻¹ s⁻¹.

Take Cp05 Ile3 analog (peptide): in the test with human C3b (human) [3], the dissociation constant Kd stood at 1.5 nM, the off-rate (koff) came to 0.002 s⁻¹ and the kon turned out to be 1.14e+06 M⁻¹ s⁻¹.

For compstatin analog Cp05 (peptide), in the test with human C3b (human) [3], the equilibrium dissociation constant (Kd) stood at 46.8 nM, the koff amounted to 0.014 s⁻¹ and the kon was 300000 M⁻¹ s⁻¹.

Take compstatin analog Cp60 (peptide): the IC50 of inhibition of classical pathway complement activation (CP ELISA, 5% human serum) with human C3b (human) [1] came out at 97 nM. In the test with human C3b (human) [2], this substance gave a Kd of 0.08 nM, a koff of 0.0001 s⁻¹, a kon of 1.76e+06 M⁻¹ s⁻¹ and a target residence of more than 100 min.

In the test with human C3b (human) [3], Cp01 Asp6Glu analog (peptide) gave a dissociation constant (Kd) of 528 nM, an off-rate (koff) of 0.18 s⁻¹ and an on-rate (kon) of 380000 M⁻¹ s⁻¹.
